{"source": "paper PMC8244513", "about": "(Current Research in Structural Biology, 2020)", "proteins": {"B1": {"name": "ZnT8B-G3H6 (amino-terminal truncated, 35 kDa isoform of human zinc transporter ZnT8 / SLC30A8) (natural protein)", "chain": "MYHCHSGSKPTEKGANEYAYAKWKLCSASAICFIFMIAEVVGGHIAGSLAVVTDAAHLLIDLTSFLLSLFSLWLSSKPPSKRLTFGWHRAEILGALLSILCIWVVTGVLVYLACERLLYPDYQIQATVMIIVSSCAVAANIVLTVVLHQRCLGHNHKEVQANASVRAAFVHALGDLFQSISVLISALIIYFKPEYKIADPICTFIFSILVLASTITILKDFSILLMEGVPKSLNYSGVKELILAVDGVLSVHSLHIWSLTMNQVILSAHVATAASRDSQVVRREIAKALSKSFTMHSLTIQMESPVDQDPDCLFCEDPCD"}}, "biological_target": "the molecule itself", "assay": "native gel or EMSA", "data": [{"protein": "B1", "values": [{"measurement": "stoichiometry N", "result": 2}]}]}
